Measurements published in patent publication US20130089544A1 (AstraZeneca / MedImmune, published 2013).

B1: monoclonal antibody 1.14.1 (antibody, V domains shown)
VH: EVQLVESGGGLVKPGGSLRLSCAASGFTFSSYSMNWVRQAPGKGLEWVSSISSSSSYIYYADSVKGRFTISRDNAKNSLYLQMNSLRAEDTAVYYCARGGDGYNYYYFDYWGQGTLVTVSS
VL: DIVMTQSPDSLAVSLGERATITCKSSQSVFFRSNNKNCLTWYQQRPGQPPNLLIYWASTRESGVPDRFSGSGSGTDFTLTINNLQAEDVAVYYCQQYFGSPFTFGPGTKVDIK
notes: Fully human IgG (gamma/kappa) from a XenoMouse XM3B-3 hybridoma; constant regions not tied to it
B2: monoclonal antibody 1.18.1 (antibody, V domains shown)
VH: EVQLVESGGGLVKPGGSLRLSCAASGFTFSSYSMNWVRQAPGKGLEWVSSISSSSSYIYYADSVKGRFTISRDNAKNSLYLQMNSLSAEDTAVYSCARGGDGYNYYYFDYWGQGTLVTVSS
VL: DIVMTQSPGSLVVSLGERATITCKSSQSVFFRSNNKNCLAWYQQRPGQSPNLLIYWASTRESGVPDRFSGSGSGTDFTLTISSLQAEDVAVYYCQQYFGSPFTFGPGTKVDIK
notes: as for B1
B3: monoclonal antibody 1.39 (antibody, V domains shown)
VH: EVQLVESGGGLVKPGGSLRLSCAASGFTFSSYSMNWVRQAPGKGLEWVSSISSSSSYIYYADSVKGRFTISRDNAKNSLYLQMNSLRAEDTAVYYCARGGDGYNYYYFDYWGQGTLVTVSS
VL: DIVMTQSPDSLAVSLGERATITCKSSQSVFFRSNNKNCLAWYQQRPGQPPNLLIYWASSRESGVPDRFSGSGSGTDFALTISSLQTEDVAVYYCQQYFGSPFTFGPGTKVDIK
notes: Fully human IgG (gamma/kappa) from a XenoMouse XM3B-3 hybridoma; constant regions not tied to it; also called 1.39.1; 1.39.2

Experiments:
[1] = biological target: T1, human ErbB2, full length, on cells (human, UniProt P04626 23-1255); assay: cell-based or functional assay
[2] = biological target: T2, human ErbB2 ECD-myc/His fusion protein (human, UniProt P04626 23-652); assay: SPR, Biacore 2000 medium resolution; mAb captured on goat anti-human IgG, ErbB2(ECD)-cMyc/His injected; 1:1 fit
T2 construct: Made in-house in 293T cells; also called hErbB2(ECD)/cMyc-His; huErbB2 (ECD)/c-myc-His; not shown: c-myc/His tag of the pSecTag2Hygro vector
Experimental: The binding affinity of eight of the anti-ErbB2 antibodies was measured by medium resolution Biacore. All experiments were performed using a Biacore 2000 instrument.
First, 12 high-density goat α-human IgG antibody surfaces over three CM5 Biacore chips were prepared using routine amine coupling. […] Before each antigen injection cycle, each mAb was captured for six to nine seconds at a 100 μL/min flow rate. A 2-minute wash step followed each capture injection to stabilize each mAb baseline. […] All samples were randomly injected with several mAb capture/buffer inject cycles interspersed for double referencing. […] A flow rate of 100 μL/min. was used for all injection cycles. The data was fit to a 1:1 interaction model using CLAMP.

[3] = biological target: T1, human ErbB2, full length, on cells; assay: cell-based or functional assay; remark: listed apart in the source
[4] = biological target: T1, human ErbB2, full length, on cells; assay: cell-based or functional assay; remark: listed apart in the source
[5] = biological target: T1, human ErbB2, full length, on cells; assay: cell-based or functional assay; remark: listed apart in the source
[6] = biological target: T2, human ErbB2 ECD-myc/His fusion protein; assay: limited antigen ELISA, 31 ng/ml ErbB2 ECD-myc/His coated, supernatant 1:25
Experimental: […] […] Antigen-coated plates were washed three times, blocked with 1% non-fat skim milk/PBS for at least 30 minutes at room temperature, and then washed again three times. Each hybridoma line sample was titrated in 1% non-fat skim-milk/PBS 1:3 for 7 points starting from a 1:25 dilution. […] The next day, plates were washed three times and incubated with 50 μl of 400 ng/ml immunopure Goat anti-human IgG (Fc)-HRP (Pierce catalog #31416) for 1 hour at room temperature. Then, the plates were extensively washed and pat dried on paper towel to remove residual HRP in wells. HRP substrate TMB (enhanced K-blue TMB, Neogen catalog #308177) was added to each well and incubated for 30 min. The reaction was stopped by addition of 1N HCl. Optical density at 450 nm was read on a microplate reader (Titerteck Multiskan Ascent).

[7] = biological target: T1, human ErbB2, full length, on cells; assay: cell-based or functional assay; remark: listed apart in the source
[8] = biological target: T1, human ErbB2, full length, on cells; assay: cell-based or functional assay; remark: listed apart in the source
[9] = biological target: T2, human ErbB2 ECD-myc/His fusion protein; assay: SPR, Biacore T100 high resolution; mAb captured on goat anti-human IgG, hHer-2(ECD)cMyc injected; 1:1 fit
Experimental: All experiments were performed using a Biacore T100 instrument. First, a high-density goat α human IgG antibody (Caltag H10500) surface was prepared over two CM5 Biacore chips using routine amine coupling. Each mAb was diluted in HBS-P running buffer containing 100 μg/ml Bovine serum albumin (BSA).
A capture level protocol was developed for all five mAbs. Before each antigen injection cycle, each mAb was captured for 15 to 30 seconds at a 20 μL/min flow rate. A 5-minute wash step followed each capture injection to stabilize each mAb baseline. […] The samples were prepared in the running buffer described above. All samples were randomly injected with several mAb capture/buffer inject cycles interspersed for double referencing. […] A flow rate of 50 μL/min. was used for all injection cycles.
All sensorgram data were fit to a 1:1 interaction model using CLAMP.

Row | Binder | N1 % Inhibition @40 µg/ml, BT474 cell proliferation [1] [%] | N1 EC50 (ng/ml), inhibition of BT474 cell proliferation [1] [ng/mL] | N2 % Inhibition @40 µg/ml, BT474 cell proliferation [1] [%] | N2 EC50 (ng/ml), inhibition of BT474 cell proliferation [1] [ng/mL] | Kd [2] [nM] | koff [2] [s⁻¹] | kon [2] [M⁻¹ s⁻¹] | % Inhibition @10 µg/ml (n1), ErbB2 phosphorylation in BT474 cells at 48 hours [3] [%] | % Inhibition @10 µg/ml (n2), ErbB2 phosphorylation in BT474 cells at 48 hours [3] [%] | 1 hr pTyr inhibition % (Heregulin-induced ErbB2 phosphorylation in MCF7 cells, hybridoma supernatant) [4] [%] | 24 hr pTyr inhibition % (Heregulin-induced ErbB2 phosphorylation in MCF7 cells, hybridoma supernatant) [4] [%] | EC50 (ng/ml) n1, inhibition of Heregulin-induced ErbB2 phosphorylation in MCF7 cells [5] [ng/mL] | EC50 (ng/ml) n2, inhibition of Heregulin-induced ErbB2 phosphorylation in MCF7 cells [5] [ng/mL] | LA at 31 ng/ml (OD) [6] [OD 450 nm] | % Inhibition @10 µg/ml, Heregulin-induced MCF7 cell proliferation [7] [%] | EC50 (ng/ml), inhibition of Heregulin-induced MCF7 cell proliferation [7] [ng/mL] | % inhibition @36 µg/ml, SKBR3 cell proliferation [8] [%] | EC50 (ng/ml), inhibition of SKBR3 cell proliferation [8] [ng/mL] | further results
1 | B1 | 38 | 136 | 39 | 63 | 2.5 | 0.000256 | 102000 | 37 | 45 | 103 | 100 | 33.7 | 22.9 | 3.99 | 96 | 640 | 52 | 35.7 | –
2 | B2 | 34 | 38.1 | 39 | 28.2 | 3 | 0.000302 | 100000 | 24 | 33 | 85 | 96 | 4.2 | 10.8 | 3.03 | 94 | 415 | 46 | 26.3 | –
3 | B3 | 29 | 156 | 40 | 42.3 | 2 | 0.000236 | 115000 | 37 | 26 | 82 | 99 | 46.9 | 26.3 | 2.57 | 89 | 479 | 41 | 68.9 | Kd [9]: 13.4 nM; koff [9]: 0.000214 s⁻¹; kon [9]: 16000 M⁻¹ s⁻¹
